Measured values: IntAct's records for PubMed 28054552

B1: Hexokinase-2 (Homo sapiens), P52789 (parent)
chain: MIASHLLAYFFTELNHDQVQKVDQYLYHMRLSDETLLEISKRFRKEMEKGLGATTHPTAAVKMLPTFVRSTPDGTEHGEFLALDLGGTNFRVLWVKVTDNGLQKVEMENQIYAIPEDIMRGSGTQLFDHIAECLANFMDKLQIKDKKLPLGFTFSFPCHQTKLDESFLVSWTKGFKSSGVEGRDVVALIRKAIQRRGDFDIDIVAVVNDTVGTMMTCGYDDHNCEIGLIVGTGSNACYMEEMRHIDMVEGDEGRMCINMEWGAFGDDGSLNDIRTEFDQEIDMGSLNPGKQLFEKMISGMYMGELVRLILVKMAKEELLFGGKLSPELLNTGRFETKDISDIEGEKDGIRKAREVLMRLGLDPTQEDCVATHRICQIVSTRSASLCAATLAAVLQRIKENKGEERLRSTIGVDGSVYKKHPHFAKRLHKTVRRLVPGCDVRFLRSEDGSGKGAAMVTAVAYRLADQHRARQKTLEHLQLSHDQLLEVKRRMKVEMERGLSKETHASAPVKMLPTYVCATPDGTEKGDFLALDLGGTNFRVLLVRVRNGKWGGVEMHNKIYAIPQEVMHGTGDELFDHIVQCIADFLEYMGMKGVSLPLGFTFSFPCQQNSLDESILLKWTKGFKASGCEGEDVVTLLKEAIHRREEFDLDVVAVVNDTVGTMMTCGFEDPHCEVGLIVGTGSNACYMEEMRNVELVEGEEGRMCVNMEWGAFGDNGCLDDFRTEFDVAVDELSLNPGKQRFEKMISGMYLGEIVRNILIDFTKRGLLFRGRISERLKTRGIFETKFLSQIESDCLALLQVRAILQHLGLESTCDDSIIVKEVCTVVARRAAQLCGAGMAAVVDRIRENRGLDALKVTVGVDGTLYKLHPHFAKVMHETVKDLAPKCDVSFLQSEDGSGKGAALITAVACRIREAGQR
B2: Hexokinase-1 (Homo sapiens), P19367 (parent)
chain: MIAAQLLAYYFTELKDDQVKKIDKYLYAMRLSDETLIDIMTRFRKEMKNGLSRDFNPTATVKMLPTFVRSIPDGSEKGDFIALDLGGSSFRILRVQVNHEKNQNVHMESEVYDTPENIVHGSGSQLFDHVAECLGDFMEKRKIKDKKLPVGFTFSFPCQQSKIDEAILITWTKRFKASGVEGADVVKLLNKAIKKRGDYDANIVAVVNDTVGTMMTCGYDDQHCEVGLIIGTGTNACYMEELRHIDLVEGDEGRMCINTEWGAFGDDGSLEDIRTEFDREIDRGSLNPGKQLFEKMVSGMYLGELVRLILVKMAKEGLLFEGRITPELLTRGKFNTSDVSAIEKNKEGLHNAKEILTRLGVEPSDDDCVSVQHVCTIVSFRSANLVAATLGAILNRLRDNKGTPRLRTTVGVDGSLYKTHPQYSRRFHKTLRRLVPDSDVRFLLSESGSGKGAAMVTAVAYRLAEQHRQIEETLAHFHLTKDMLLEVKKRMRAEMELGLRKQTHNNAVVKMLPSFVRRTPDGTENGDFLALDLGGTNFRVLLVKIRSGKKRTVEMHNKIYAIPIEIMQGTGEELFDHIVSCISDFLDYMGIKGPRMPLGFTFSFPCQQTSLDAGILITWTKGFKATDCVGHDVVTLLRDAIKRREEFDLDVVAVVNDTVGTMMTCAYEEPTCEVGLIVGTGSNACYMEEMKNVEMVEGDQGQMCINMEWGAFGDNGCLDDIRTHYDRLVDEYSLNAGKQRYEKMISGMYLGEIVRNILIDFTKKGFLFRGQISETLKTRGIFETKFLSQIESDRLALLQVRAILQQLGLNSTCDDSILVKTVCGVVSRRAAQLCGAGMAAVVDKIRENRGLDRLNVTVGVDGTLYKLHPHFSRIMHQTVKELSPKCNVSFLLSEDGSGKGAALITAVGVRLRTEASS

Variants of: B1
Conditions: with src_mouse Src

| effect of a mutation on the interaction | Variant |
| --- | --- |
| disrupting interaction strength | Y686F |

Variants of: B2
Conditions: with src_mouse Src

| effect of a mutation on the interaction | Variant |
| --- | --- |
| disrupting interaction strength | Y732F |
| with no effect | Y417F |
| with no effect | Y27F |
